Measured values as given in publication PMC3155546 (PLoS ONE, 2011).

Biological target: T1, GST-TPPP1–219 (human, UniProt O94811 1-219)
T1 construct: also called GST-TPPP(FL); full-length TPPP
Experiment: co-IP
Conditions: both partners purified

T1 sequence (O94811 whole entry): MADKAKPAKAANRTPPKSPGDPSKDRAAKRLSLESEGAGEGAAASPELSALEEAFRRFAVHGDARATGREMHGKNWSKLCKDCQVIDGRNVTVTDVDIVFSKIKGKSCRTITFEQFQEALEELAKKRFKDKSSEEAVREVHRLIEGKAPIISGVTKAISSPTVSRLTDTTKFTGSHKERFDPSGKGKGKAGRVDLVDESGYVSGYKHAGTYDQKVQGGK

KTNMKHMAGAAAAGAVVGGLG (domain or fragment) [GST-PrP106–126]
binding result: binds
